According to PMC11791206 (Nature Communications, 2025):

Target: full-length (MLD-containing) EBOV glycoprotein GP1,2, wild type (Ebola virus (EBOV), UniProt Q05320)
Assay: immunostaining of cells or tissue
Details: one partner purified

Chain of full-length (MLD-containing) EBOV glycoprotein GP1,2, wild type (Q05320 33-676): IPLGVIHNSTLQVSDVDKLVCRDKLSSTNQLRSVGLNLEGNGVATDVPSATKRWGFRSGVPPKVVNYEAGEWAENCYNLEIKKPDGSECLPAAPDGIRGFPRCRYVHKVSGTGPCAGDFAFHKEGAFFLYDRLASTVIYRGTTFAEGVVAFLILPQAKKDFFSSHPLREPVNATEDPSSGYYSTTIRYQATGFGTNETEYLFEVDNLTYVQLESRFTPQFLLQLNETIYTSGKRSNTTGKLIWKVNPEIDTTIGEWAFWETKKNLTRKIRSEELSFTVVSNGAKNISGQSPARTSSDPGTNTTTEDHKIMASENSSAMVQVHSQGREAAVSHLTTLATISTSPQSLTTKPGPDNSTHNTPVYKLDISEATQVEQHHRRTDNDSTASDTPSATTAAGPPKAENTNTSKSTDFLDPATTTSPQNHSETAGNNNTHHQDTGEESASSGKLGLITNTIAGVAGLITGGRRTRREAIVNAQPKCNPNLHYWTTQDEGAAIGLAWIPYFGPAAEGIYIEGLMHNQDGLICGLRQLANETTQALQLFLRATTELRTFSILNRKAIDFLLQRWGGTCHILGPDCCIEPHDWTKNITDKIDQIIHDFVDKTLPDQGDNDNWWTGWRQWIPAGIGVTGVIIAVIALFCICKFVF

B1: mAb 9.6.3A6 (3A6 IgG) (antibody, V domains shown)
VH: EVQLLESGGGLVKPGGSLRLSCAASGFTFNEYMMNWVRQPPGKGLEWVSSISGTSTYINYADSVKGRFTISRDNAKNSLYLQMNSLRSDDTAMYYCARGSTGGYWGQGTLITVSS
VL: DIVMTQTPLSSAVTLGQPASISCRSSQRLVHSDGNTYLSWLHQRPGQPPRLLIYKVSLRFSGVPDRFSGSGAGTDFTLKISRVEAEDVGIYYCMQATQFPLTFGGGTKVEIK
notes: copies: 2 + 2
  binding result: binds
